Changes are numbered by the printed parent chain. Names and notes keep the numbering of the source.

T1: PUF4 RNA-binding domain (Saccharomyces cerevisiae, UniProt P25339 537-888)
T1 sequence: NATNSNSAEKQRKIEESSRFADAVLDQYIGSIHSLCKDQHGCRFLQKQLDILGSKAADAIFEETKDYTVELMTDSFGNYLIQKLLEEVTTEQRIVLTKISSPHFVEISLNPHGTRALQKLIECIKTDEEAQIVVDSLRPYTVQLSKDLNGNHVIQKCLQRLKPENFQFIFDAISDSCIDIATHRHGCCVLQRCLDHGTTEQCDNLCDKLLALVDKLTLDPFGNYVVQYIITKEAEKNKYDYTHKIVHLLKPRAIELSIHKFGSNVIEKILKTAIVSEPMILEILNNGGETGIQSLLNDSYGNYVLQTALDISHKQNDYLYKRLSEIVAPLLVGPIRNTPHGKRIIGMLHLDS

B1: Ic_S4_P4E.1_K4.1_C4.1_H4.1_A4.1_[A6T]_[T7C]_F4.1_T4.1 (ssRNA)
RNA: UUUGACAACUGAUCGUUCUUUCUUGUAUUCUAUUCUUUCUCGAUCAGUUGUCUUU
B2: Ib_S4_P4E.1_K4.1_C4.1_H4.1_A4.1_[A6T]_[T7A]_F4.1_T4.1 (ssRNA)
RNA: B1 RNA with C30A
B3: Ia_S4_P4E.1_K4.1_C4.1_H4.1_[G2A]_A4.1_F4.1_T4.1 (ssRNA)
RNA: B1 RNA with G25A, U29A, C30U
B4: Ia_S4_P4E.1_K4.1_C4.1_H4.1_[A4G]_A4.1_F4.1_T4.1 (ssRNA)
RNA: B1 RNA with A27G, U29A, C30U
B5: Ia_S4_P4E.1_K4.1_C4.1_H4.1_A4.1_[T5C]_F4.1_T4.1 (ssRNA)
RNA: B1 RNA with U28C, U29A, C30U
B6: Ia_S4_P4E.1_K4.1_C4.1_H4.1_[T3C]_A4.1_F4.1_T4.1 (ssRNA)
RNA: B1 RNA with U26C, U29A, C30U
B7: Ia_S4_P4E.1_K4.1_C4.1_H4.1_[G2T]_A4.1_F4.1_T4.1 (ssRNA)
RNA: B1 RNA with G25U, U29A, C30U
B8: Ib_S4_P5E.1_K5.1_C5.1_H5.1_A5.1_F5.1_[T8G]_[A10G]_T5.1 (ssRNA)
RNA: UUUGACAACUGAUCGUUCUUUCUUGUAUUAGUGUUCUUUCUCGAUCAGUUGUCUUU
B9: Ib_S4_P5E.1_K5.1_C5.1_H5.1_[G2A]_A5.1_F5.1_[T8G]_T5.1 (ssRNA)
RNA: B8 RNA with G25A, G33A
B10: Ib_S4_P5E.1_K5.1_C5.1_H5.1_A5.1_[T5A]_F5.1_[A10C]_T5.1 (ssRNA)
RNA: B8 RNA with U28A, G31U, G33C
B11: Ib_S4_P5E.1_K5.1_C5.1_H5.1_A5.1_[A7C]_F5.1_[T9C]_T5.1 (ssRNA)
RNA: B8 RNA with A30C, G31U, U32C, G33A
B12: Ib_S4_P5E.1_K5.1_C5.1_H5.1_A5.1_[T6A]_F5.1_[T8A]_T5.1 (ssRNA)
RNA: B8 RNA with U29A, G31A, G33A
B13: Ib_S4_P5E.1_K5.1_C5.1_H5.1_[A4T]_A5.1_F5.1_[T9A]_T5.1 (ssRNA)
RNA: B8 RNA with A27U, G31U, U32A, G33A
B14: Ib_S4_P5E.1_K5.1_C5.1_H5.1_[G2A]_A5.1_F5.1_[T8A]_T5.1 (ssRNA)
RNA: B8 RNA with G25A, G31A, G33A
B15: Ib_S4_P5E.1_K5.1_C5.1_H5.1_A5.1_[T5C]_F5.1_[T9C]_T5.1 (ssRNA)
RNA: B8 RNA with U28C, G31U, U32C, G33A
B16: Ib_S4_P5E.1_K5.1_C5.1_H5.1_A5.1_F5.1_[T8G]_[A10T]_T5.1 (ssRNA)
RNA: B8 RNA with G33U
B17: Ib_S4_P5E.1_K5.1_C5.1_H5.1_A5.1_[T5G]_F5.1_[T8C]_T5.1 (ssRNA)
RNA: B8 RNA with U28G, G31C, G33A
B18: Ib_S4_P5E.1_K5.1_C5.1_H5.1_[T1C]_A5.1_F5.1_[T8C]_T5.1 (ssRNA)
RNA: B8 RNA with U24C, G31C, G33A
B19: Ib_S4_P5E.1_K5.1_C5.1_H5.1_A5.1_[A7C]_F5.1_[T8G]_T5.1 (ssRNA)
RNA: B8 RNA with A30C, G33A
B20: Ib_S4_P5E.1_K5.1_C5.1_H5.1_[T1C]_A5.1_F5.1_[A10C]_T5.1 (ssRNA)
RNA: B8 RNA with U24C, G31U, G33C
B21: Ib_S4_P5E.1_K5.1_C5.1_H5.1_A5.1_[A7G]_F5.1_[T8C]_T5.1 (ssRNA)
RNA: B8 RNA with A30G, G31C, G33A
B22: Ib_S4_P5E.1_K5.1_C5.1_H5.1_[T3C]_A5.1_F5.1_[A10C]_T5.1 (ssRNA)
RNA: B8 RNA with U26C, G31U, G33C
B23: Ib_S4_P5E.1_K5.1_C5.1_H5.1_[A4C]_A5.1_F5.1_[A10C]_T5.1 (ssRNA)
RNA: B8 RNA with A27C, G31U, G33C
B24: Ib_S4_P5E.1_K5.1_C5.1_H5.1_[A4C]_A5.1_F5.1_[T8C]_T5.1 (ssRNA)
RNA: B8 RNA with A27C, G31C, G33A
B25: Ib_S4_P5E.1_K5.1_C5.1_H5.1_[A4C]_A5.1_F5.1_[T9A]_T5.1 (ssRNA)
RNA: B8 RNA with A27C, G31U, U32A, G33A
B26: Ib_S4_P5E.1_K5.1_C5.1_H5.1_A5.1_[A7T]_F5.1_[T9C]_T5.1 (ssRNA)
RNA: B8 RNA with A30U, G31U, U32C, G33A
B27: Ib_S4_P5E.1_K5.1_C5.1_H5.1_[A4G]_A5.1_F5.1_[A10C]_T5.1 (ssRNA)
RNA: B8 RNA with A27G, G31U, G33C
B28: Ib_S4_P5E.1_K5.1_C5.1_H5.1_A5.1_[T5G]_F5.1_[T9A]_T5.1 (ssRNA)
RNA: B8 RNA with U28G, G31U, U32A, G33A
B29: Ic_S4_P5E.1_K5.1_C5.1_H5.1_A5.1_F5.1_[T9A]_[A10C]_T5.1 (ssRNA)
RNA: B8 RNA with G31U, U32A, G33C
B30: Ic_S4_P5E.1_K5.1_C5.1_H5.1_A5.1_F5.1_[T8C]_[A10G]_T5.1 (ssRNA)
RNA: B8 RNA with G31C
B31: Ib_S4_P5E.1_K5.1_C5.1_H5.1_[G2A]_A5.1_F5.1_[A10T]_T5.1 (ssRNA)
RNA: B8 RNA with G25A, G31U, G33U
B32: Ib_S4_P5E.1_K5.1_C5.1_H5.1_A5.1_[T5A]_F5.1_[T8A]_T5.1 (ssRNA)
RNA: B8 RNA with U28A, G31A, G33A
B33: Ib_S4_P5E.1_K5.1_C5.1_H5.1_[G2C]_A5.1_F5.1_[T8C]_T5.1 (ssRNA)
RNA: B8 RNA with G25C, G31C, G33A
B34: Ib_S4_P5E.1_K5.1_C5.1_H5.1_[T3C]_A5.1_F5.1_[T8A]_T5.1 (ssRNA)
RNA: B8 RNA with U26C, G31A, G33A
B35: Ib_S4_P5E.1_K5.1_C5.1_H5.1_[T3C]_A5.1_F5.1_[T8C]_T5.1 (ssRNA)
RNA: B8 RNA with U26C, G31C, G33A
B36: Ib_S4_P5E.1_K5.1_C5.1_H5.1_[A4C]_A5.1_F5.1_[T8A]_T5.1 (ssRNA)
RNA: B8 RNA with A27C, G31A, G33A
B37: Ic_S4_P5E.1_K5.1_C5.1_H5.1_A5.1_[T5C]_F5.1_[T8C]_T5.1 (ssRNA)
RNA: B8 RNA with U28C, G31C, G33A
B38: Ib_S4_P5E.1_K5.1_C5.1_H5.1_A5.1_[A7T]_F5.1_[T8G]_T5.1 (ssRNA)
RNA: B8 RNA with A30U, G33A
B39: Ib_S4_P5E.1_K5.1_C5.1_H5.1_A5.1_F5.1_[T9A]_[A10T]_T5.1 (ssRNA)
RNA: B8 RNA with G31U, U32A, G33U
B40: Ib_S4_P5E.1_K5.1_C5.1_H5.1_A5.1_F5.1_[T9G]_[A10C]_T5.1 (ssRNA)
RNA: B8 RNA with G31U, U32G, G33C
B41: Ib_S4_P5E.1_K5.1_C5.1_H5.1_A5.1_[T6A]_F5.1_[T8C]_T5.1 (ssRNA)
RNA: B8 RNA with U29A, G31C, G33A
B42: Ib_S4_P5E.1_K5.1_C5.1_H5.1_A5.1_[T5G]_F5.1_[A10G]_T5.1 (ssRNA)
RNA: B8 RNA with U28G, G31U
B43: Ib_S4_P5E.1_K5.1_C5.1_H5.1_[T1G]_A5.1_F5.1_[T9A]_T5.1 (ssRNA)
RNA: B8 RNA with U24G, G31U, U32A, G33A
B44: Ib_S4_P5E.1_K5.1_C5.1_H5.1_[T1C]_A5.1_F5.1_[T8A]_T5.1 (ssRNA)
RNA: B8 RNA with U24C, G31A, G33A
B45: Ib_S4_P5E.1_K5.1_C5.1_H5.1_[A4T]_A5.1_F5.1_[T8G]_T5.1 (ssRNA)
RNA: B8 RNA with A27U, G33A
B46: Ic_S4_P5E.1_K5.1_C5.1_H5.1_A5.1_[T6C]_F5.1_[T9A]_T5.1 (ssRNA)
RNA: B8 RNA with U29C, G31U, U32A, G33A
B47: Ib_S4_P5E.1_K5.1_C5.1_H5.1_[A4C]_A5.1_F5.1_[A10T]_T5.1 (ssRNA)
RNA: B8 RNA with A27C, G31U, G33U
B48: Ib_S4_P5E.1_K5.1_C5.1_H5.1_[A4G]_A5.1_F5.1_[T8C]_T5.1 (ssRNA)
RNA: B8 RNA with A27G, G31C, G33A
B49: Ib_S4_P5E.1_K5.1_C5.1_H5.1_A5.1_F5.1_[T8A]_[A10G]_T5.1 (ssRNA)
RNA: B8 RNA with G31A
B50: Ib_S4_P5E.1_K5.1_C5.1_H5.1_[A4T]_A5.1_F5.1_[A10T]_T5.1 (ssRNA)
RNA: B8 RNA with A27U, G31U, G33U
B51: Ib_S4_P5E.1_K5.1_C5.1_H5.1_A5.1_[A7G]_F5.1_[T9C]_T5.1 (ssRNA)
RNA: B8 RNA with A30G, G31U, U32C, G33A
B52: Ib_S4_P5E.1_K5.1_C5.1_H5.1_A5.1_[A7T]_F5.1_[T8C]_T5.1 (ssRNA)
RNA: B8 RNA with A30U, G31C, G33A

The series concerns the target T1, PUF4 RNA-binding domain. Kind of series: Mg; RNA-MaP; 20 mM Na-HEPES pH 7.4, 30 mM KOAc, 0.75 mM MgCl2, 0.1% Tween-20, 5% glycerol, 0.1 mg/mL BSA, 2 mM DTT; 25 C; 0.0125-409.6 nM protein. The following applies: tags: N-His6-TEV cleaved; C-SNAP kept, Cy3B-labelled; label: tethered on chip by stalled RNA polymerase.
B1 yielded a Kd of 2.33 nM.

For the molecule B2, the Kd turned out to be 1.36 nM.

On to B3, for which the Kd was found to be 10.3 nM.

The molecule B4 showed a Kd of 1.25 nM.

B5 returned a Kd of 0.303 nM.

Molecule B6 displayed a Kd of 21 nM.

Molecule B7 came in with a dissociation constant (Kd) of 253 nM. This Kd is about 12-fold higher than that of the molecule before.

In turn, B8 gave a Kd of 488 nM.

B9 displayed a Kd of 628 nM.

Take B10: binding was characterised by a dissociation constant (Kd) of 29.4 nM.

Regarding B11, the Kd came to 56 nM.

B12: the affinity, expressed as Kd, was 9.5 nM.

Molecule B13 came in with a Kd of 33.2 nM.

In the case of B14, the Kd is 598 nM.

B15 registered a Kd of 27.6 nM.

Molecule B16 had a Kd of 393 nM.

For B17, binding was characterised by a dissociation constant (Kd) of 13.1 nM.

Molecule B18 registered a Kd of 688 nM.

For B19, binding was characterised by a dissociation constant (Kd) of 10.4 nM. Compared with the last molecule, the Kd is about 66-fold lower.

In turn, B20 gave a Kd greater than 2300 nM.

As for B21, binding was put at a Kd of 14.9 nM.

The molecule B22 showed a Kd of 1790 nM.

B23 displayed a Kd of 493 nM. This Kd lies about 3.6-fold lower than the previous one.

Take B24: the Kd amounted to 35.7 nM.

On to B25, for which the Kd is 57.1 nM.

Consider B26, for which the Kd was 69.4 nM.

Consider B27, for which the Kd is 105 nM.

With B28, the Kd is 7.64 nM.

B29 had a Kd of 7.38 nM.

For B30, binding was characterised by a dissociation constant (Kd) of 50.3 nM.

For the molecule B31, the Kd was 259 nM.

B32 came in with a Kd of 13.8 nM.

As to B33, the Kd is greater than 2300 nM.

For the molecule B34, the Kd was 1010 nM.

As for B35, the Kd came to 478 nM. This Kd lies about 2.1-fold lower than the previous one.

Take B36: the Kd came out at 26.8 nM.

Regarding B37, the Kd amounted to 3.13 nM.

B38 gave a Kd of 3.74 nM. The Kd values of the last two molecules are within 1.5-fold of each other.

B39 had a Kd of 1.18 nM.

Turning to B40, the Kd was determined as 37 nM.

With B41, binding was characterised by a dissociation constant (Kd) of 5.07 nM.

In turn, B42 showed a Kd of 109 nM.

On to B43, for which binding was characterised by a dissociation constant (Kd) of 1300 nM. This Kd lies about 12-fold higher than the previous one.

B44 returned a Kd of 964 nM.

Molecule B45 gave a Kd of 107 nM.

For the molecule B46, the Kd is 1.47 nM.

Take B47: binding was put at a Kd of 201 nM.

As for B48, the Kd came out at 28.4 nM. Against the preceding molecule, the Kd is about 7.1-fold lower.

B49 gave a Kd of 36.4 nM. This Kd and that of the molecule before are within 1.5-fold of each other.

Molecule B50 registered a Kd of 119 nM.

In the case of B51, the Kd amounted to 393 nM.

B52 returned a Kd of 3.12 nM.

As a reminder, the Kd is the equilibrium constant for the complex coming apart. Higher therefore signals a looser complex.

These data come from paper PMC9352680, “A comprehensive thermodynamic model for RNA binding by the Saccharomyces cerevisiae Pumilio protein PUF4”.
